From publication PMC11323482, “Role of the antiparallel double-stranded filament form of FtsA in activating the Escherichia coli divisome” (mBio, 2024)

Tests used:
[1] = molecular target: the molecule itself; assay: cross-linking; in vivo site-specific cysteine crosslinking in E. coli cells with BMB or BMH (0.5 mM, 10 min, cold PBS), quenched with beta-mercaptoethanol; SDS-PAGE and immunoblot with anti-FtsA; dividing cells: ftsZ84(ts) strains 10 and 20 min after return to 30 °C, ftsQ1ts and zipA1ts at 30 °C, ftsA° strain at 30 or 42 °C, WM4952 at 37 °C, WM4953
[2] = molecular target: the molecule itself; assay: cross-linking; in vivo cysteine crosslinking in zipA1(ts) cells (WM7149) shifted to the nonpermissive 42 °C, compared with 30 °C; SDS-PAGE and anti-FtsA immunoblot
[3] = molecular target: the molecule itself; assay: cross-linking; in vivo cysteine crosslinking in ftsQ1(ts) cells (WM7148) shifted to the nonpermissive 42 °C, compared with 30 °C; SDS-PAGE and anti-FtsA immunoblot

Row | Protein | DS filament crosslinking at Q155C, percent of WT levels [1] [%] | fold decrease of the crosslinked band's intensity at 42 °C against 30 °C [2] [fold] | fold decrease of the crosslinked band's intensity at 42 °C against 30 °C [3] [fold]
1 | FtsA^M71A with Q155C (natural protein, E. coli, UniProt P0ABH0 1-420, looked up, FtsA, E. coli, M71A, measured by crosslinking at Q155C; M71A introduced into pWM7049 or pWM7239; source: E. coli, expressed from plasmid, in living cells) MIKATDRKLVVGLEIGTAKVAALVGEVLPDGMVNIIGVGSCPSRGMDKGGVNDLESVVKCVQRAIDQAELAADCQISSVYLALSGKHISCQNEIGMVPISEEEVTQEDVENVVHTAKSVRVRDEHRVLHVIPQEYAIDYQEGIKNPVGLSGVRMCAKVHLITCHNDMAKNIVKAVERCGLKVDQLIFAGLASSYSVLTEDERELGVCVVDIGGGTMDIAVYTGGALRHTKVIPYAGNVVTSDIAYAFGTPPSDAEAIKVRHGCALGSIVGKDESVEVPSVGGRPPRSLQRQTLAEVIEPRYTELLNLVNEEILQLQEKLRQQGVKHHLAAGIVLTGGAAQIEGLAACAQRVFHTQVRIGAPLNITGLTDYAQEPYYSTAVGLLHYGKESHLNGEAEVEKRVTASVGSWIKRLNSWLRKEF | ~35 | – | –
2 | FLAG-FtsA^Q155C (natural protein, E. coli, UniProt P0ABH0 1-420, looked up, FtsA, E. coli, with the cysteine substitution Q155C; made by site-directed mutagenesis on pWM2785 (pDSW210-FLAG-FtsA); Native FtsA is also present in some strains; also called pDSW210-FLAG-FtsA^Q155C; source: E. coli, expressed from plasmid pDSW210 (IPTG), in living cells; not shown: FLAG, N-terminal, kept) MIKATDRKLVVGLEIGTAKVAALVGEVLPDGMVNIIGVGSCPSRGMDKGGVNDLESVVKCVQRAIDQAELMADCQISSVYLALSGKHISCQNEIGMVPISEEEVTQEDVENVVHTAKSVRVRDEHRVLHVIPQEYAIDYQEGIKNPVGLSGVRMCAKVHLITCHNDMAKNIVKAVERCGLKVDQLIFAGLASSYSVLTEDERELGVCVVDIGGGTMDIAVYTGGALRHTKVIPYAGNVVTSDIAYAFGTPPSDAEAIKVRHGCALGSIVGKDESVEVPSVGGRPPRSLQRQTLAEVIEPRYTELLNLVNEEILQLQEKLRQQGVKHHLAAGIVLTGGAAQIEGLAACAQRVFHTQVRIGAPLNITGLTDYAQEPYYSTAVGLLHYGKESHLNGEAEVEKRVTASVGSWIKRLNSWLRKEF | – | 7.5 | 3
